Test results: patent EP4814014A1, “BINDING MOLECULE AND ANTIBODY-DRUG CONJUGATE AND USE THEREOF” (priority 2023, dated 2025)
Residue numbers refer to the chain shown, from its start. Names and notes keep the numbering of the source. Values belong to the binder of their own block, whether it stands above or below them.

How the values were obtained:
human EGFR on cells [1] = target: T1, human EGFR on cells (human, UniProt P00533 25-1210); test: FACS, VHH-His on CHOK1-huEGFR cells
T1 construct: whole, on cells; the cell line is named under assay; also called CHO-S-EGFR; CHOK1-huEGFR

human cMet on cells [2] = target: T2, human cMet on cells (human, UniProt P08581 25-1390); test: FACS, VHH-His on EBC-1 cells
T2 construct: whole, on cells; Cell lines: CHO-S-cMet, CHOK1-hucMet, EBC-1, MKN45, NCI-H1975; the cell line is named under assay; also called CHO-S-cMet; CHOK1-hucMet
T2 sequence (P08581 25-1390): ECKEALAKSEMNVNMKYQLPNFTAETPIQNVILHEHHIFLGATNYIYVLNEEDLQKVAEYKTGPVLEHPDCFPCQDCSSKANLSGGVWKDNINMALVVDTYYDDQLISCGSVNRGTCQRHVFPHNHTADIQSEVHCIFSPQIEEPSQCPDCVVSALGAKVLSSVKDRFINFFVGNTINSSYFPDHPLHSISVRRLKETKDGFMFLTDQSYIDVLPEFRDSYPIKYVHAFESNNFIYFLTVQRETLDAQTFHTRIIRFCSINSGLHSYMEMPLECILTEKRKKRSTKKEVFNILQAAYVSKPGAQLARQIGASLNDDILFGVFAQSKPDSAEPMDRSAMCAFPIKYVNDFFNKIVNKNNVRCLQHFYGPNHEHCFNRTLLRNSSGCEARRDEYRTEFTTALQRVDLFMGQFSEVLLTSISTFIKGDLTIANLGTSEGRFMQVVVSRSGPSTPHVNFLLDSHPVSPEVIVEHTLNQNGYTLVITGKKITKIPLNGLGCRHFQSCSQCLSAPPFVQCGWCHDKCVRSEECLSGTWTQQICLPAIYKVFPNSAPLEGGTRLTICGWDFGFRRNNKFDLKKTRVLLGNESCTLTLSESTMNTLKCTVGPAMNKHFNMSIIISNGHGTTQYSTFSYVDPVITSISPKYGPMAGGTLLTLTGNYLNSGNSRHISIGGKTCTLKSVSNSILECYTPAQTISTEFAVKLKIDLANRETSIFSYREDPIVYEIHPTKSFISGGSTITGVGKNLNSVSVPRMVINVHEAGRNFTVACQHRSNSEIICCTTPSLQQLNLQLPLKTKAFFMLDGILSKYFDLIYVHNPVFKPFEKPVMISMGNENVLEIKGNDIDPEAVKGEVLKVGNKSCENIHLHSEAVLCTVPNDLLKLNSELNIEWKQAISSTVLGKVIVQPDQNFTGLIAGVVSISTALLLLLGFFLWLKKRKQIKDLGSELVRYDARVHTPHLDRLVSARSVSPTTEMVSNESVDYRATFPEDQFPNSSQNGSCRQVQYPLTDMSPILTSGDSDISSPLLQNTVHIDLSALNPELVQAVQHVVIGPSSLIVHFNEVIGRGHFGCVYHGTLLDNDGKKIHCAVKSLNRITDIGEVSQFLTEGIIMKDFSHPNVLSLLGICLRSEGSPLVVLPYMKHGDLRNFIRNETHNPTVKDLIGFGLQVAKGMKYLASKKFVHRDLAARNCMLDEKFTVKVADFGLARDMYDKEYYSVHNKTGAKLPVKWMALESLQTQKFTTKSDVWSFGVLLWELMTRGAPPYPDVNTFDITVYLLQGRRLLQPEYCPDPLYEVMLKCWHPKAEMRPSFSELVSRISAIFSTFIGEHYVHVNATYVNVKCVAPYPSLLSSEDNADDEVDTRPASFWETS

human cMet on cells [3] = target: T2, human cMet on cells; test: FACS competition on EBC-1 cells, HGF-His as the ligand detected, VHH-Fc from 100 nM
human EGFR on cells [4] = target: T1, human EGFR on cells; test: FACS, VHH-His on MDA-MB-468 cells
human cMet on cells [5] = target: T2, human cMet on cells; test: FACS, VHH-His on MKN45 cells
human cMet on cells [6] = target: T2, human cMet on cells; test: FACS, VHH-His on CHOK1-hucMet cells

B4: VHH10 (VHH, not shown: small tags and cut ends)
VHH: QSQLVESGGGLVKPGGSLRLSCVASGFTISRSIMSWYRQAPGKERDWVASIGSAGNTNYVDSVKGRFTISRDNAKNSLYLQMNSLRAEDTAVYYCKTTLAVSFSEYWGQGTLVTVSS
notes: Humanized 9A2 anti-cMet VHH-His; also called hu9A2
- EC50 (human cMet on cells [2]): 1.63 nM
- Maximum MFI value (human cMet on cells [2]): 233000 MFI

B5: VHH9 (VHH, not shown: small tags and cut ends)
VHH: B4 VHH with Q1E, V5L, K13Q, N73V, A74S, S77T
notes: Humanized 9A2 anti-cMet VHH-His
- EC50 (human cMet on cells [2]): 1.63 nM
- Maximum MFI value (human cMet on cells [2]): 194000 MFI

B6: VHH8 (VHH, not shown: small tags and cut ends)
VHH: B4 VHH with Q1E, V5L, K13Q, A74S, S77T, L78V
notes: as for B5
- EC50 (human cMet on cells [2]): 2.5 nM
- Maximum MFI value (human cMet on cells [2]): 143000 MFI

B7: V-n9A10 anti-cMet VHH-Fc (Fc fusion, not shown: a dimerising Fc or GST)
chain: QVQLVESGGGLVQPGGSLRLSCEASGFTFSSYVMSWYRQAPGKERELVALISSTTGSSTKYGDSVKGRFTISRDNAKNTVYLQMNSLKPEDTAVYYCNAMIGWNNHWGQGTHVTVSS
- MFI value at the highest concentration (human cMet on cells [3]): 77200 MFI
- ratio of MFI value at the highest concentration to that at the lowest concentration (human cMet on cells [3]): 1.14

B8: zn9B8.m2 (VHH, not shown: small tags and cut ends)
VHH: EVQLLESGGGLVQPGGSLRLSCAASGLTFSYYAMAWFRQAPGKEREFVAAINWNGGNTYNTDSVKGRFTISRDNSKNTVYLQMNSLTPEDTAVYYCAVRYNSASYLVARSSDYNYWGQGTLVTVSS
notes: Humanized anti-EGFR VHH-His
- EC50 (human EGFR on cells [4]): 2.49 nM
- Maximum MFI value (human EGFR on cells [4]): 95800 MFI
- EC50 (human EGFR on cells [1]): 3.94 nM
- Maximum MFI value (human EGFR on cells [1]): 84300 MFI

B11: pn7A12.N32X.m1 (VHH, not shown: small tags and cut ends)
VHH: EVQLVESGGGLVQAGGSLRLSCVASGNIFSSYHMGWFRQAPGKQREFIAYITTREITNYADSVKGRFTISRDNTKNTVYLQMNVLKPEDTAVYYCIADQSREIRRSWGQGTQVTVSS
notes: PTM-removal anti-cMet VHH-His
- EC50 (human cMet on cells [5]): 5.1 nM
- Maximum MFI value (human cMet on cells [5]): 40400 MFI

B14: dpzn7A12m4.m1_3 (VHH, not shown: small tags and cut ends)
VHH: B11 VHH with V12I, V23T, T74A, V84S, K86R, Q112L
notes: Humanized + PTM removal + primary immunogenicity removal, anti-cMet VHH-His
- EC50 (human cMet on cells [6]): 0.809 nM
- Maximum MFI value (human cMet on cells [6]): 63400 MFI

B15: pn7A12.N32X.m3 (VHH, not shown: small tags and cut ends)
VHH: B11 VHH with Y32H
notes: PTM-removal anti-cMet VHH-His
- EC50 (human cMet on cells [5]): 4.16 nM
- Maximum MFI value (human cMet on cells [5]): 49600 MFI

B16: dpzn7A12m4.m1_1 (VHH, not shown: small tags and cut ends)
VHH: B11 VHH with V12I, V23T, T74S, V78L, V84S, K86R, P87A, Q112L
notes: as for B14
- EC50 (human cMet on cells [6]): 0.716 nM
- Maximum MFI value (human cMet on cells [6]): 73900 MFI

Other lines, results leading:

- Maximum MFI value (human EGFR on cells [1]): 3570 MFI
B1: pzn10A1_m6m5 (VHH, not shown: small tags and cut ends)
VHH: QVQLVESGGGLVQPGGSLRLSCAASGRTGSLHAMGWFRQAPGKERERVATLNLSDVSAVTADSVKGRFTISTDNSKNSVYLQMNSLRAEDTAVYYCTASRSPSGIRYYKPDYWGQGTLVTVSS

- Maximum MFI value (human EGFR on cells [1]): 2470 MFI
B2: ppzn10A1_m6m5.m1 (VHH, not shown: small tags and cut ends)
VHH: B1 VHH with N52R

- Maximum MFI value (human EGFR on cells [1]): 4770 MFI
B3: ppzn10A1_m6m5.m3 (VHH, not shown: small tags and cut ends)
VHH: B1 VHH with N52Q

- EC50 (human EGFR on cells [1]): 4.96 nM
- Maximum MFI value (human EGFR on cells [1]): 85700 MFI
B9: pzn9B8.m2.m12 (VHH, not shown: small tags and cut ends)
VHH: B8 VHH with G55A, S102A
notes: Humanized + PTM-removal anti-EGFR VHH-His

- EC50 (human EGFR on cells [1]): 3.39 nM
- Maximum MFI value (human EGFR on cells [1]): 80100 MFI
B10: pzn9B8.m2.m11 (VHH, not shown: small tags and cut ends)
VHH: B8 VHH with G55Q, S102Q
notes: Humanized + PTM-removal anti-EGFR VHH-His; also called hu9B8

- EC50 (human cMet on cells [5]): 4.45 nM
- Maximum MFI value (human cMet on cells [5]): 44700 MFI
B12: pn7A12.N32X.m6 (VHH, not shown: small tags and cut ends)
VHH: B11 VHH with Y32D
notes: PTM-removal anti-cMet VHH-His

- EC50 (human cMet on cells [5]): 4.96 nM
- Maximum MFI value (human cMet on cells [5]): 38000 MFI
B13: pn7A12.N32X.m4 (VHH, not shown: small tags and cut ends)
VHH: B11 VHH with Y32F
notes: PTM-removal anti-cMet VHH-His
